Numbering of substitutions follows the chain as printed. Names and notes keep the numbering of the source.
Columns and labels:
[1] = target: T1, RBMS1 (58-224) (Homo sapiens) (UniProt P29558); test: ITC; settings: ITC: 20 mM sodium phosphate pH 7.1, 50 mM NaCl, 303 K, 0.1 mM protein in cell, 1-1.5 mM DNA in syringe; NMR: 20 mM sodium phosphate pH 7.1, 100 mM NaCl, 5% D2O
T1 sequence: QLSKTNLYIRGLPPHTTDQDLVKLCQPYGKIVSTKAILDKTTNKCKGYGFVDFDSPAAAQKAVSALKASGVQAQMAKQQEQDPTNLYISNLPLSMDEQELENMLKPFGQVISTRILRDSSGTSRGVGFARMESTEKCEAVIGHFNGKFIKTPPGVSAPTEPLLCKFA

RBMS1 (58-224) [2] = target: T2, RBMS1 (58-224) (Homo sapiens, UniProt P29558 62-223); test: ITC; 20 mM sodium phosphate pH 7.1, 50 mM NaCl, 303 K (30 C); 0.1 mM protein in cell, 1-1.5 mM DNA in syringe; settings: protein: recombinant; tags: N-term GAMG left after TEV cleavage of 6xHis
T2 sequence: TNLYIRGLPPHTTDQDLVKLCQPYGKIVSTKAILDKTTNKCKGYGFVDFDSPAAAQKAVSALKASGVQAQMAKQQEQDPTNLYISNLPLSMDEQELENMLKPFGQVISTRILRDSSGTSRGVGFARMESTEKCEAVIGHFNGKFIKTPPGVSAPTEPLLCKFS

RBMS1 (58-224) [3] = target: T3, RBMS1 (58-224) (Homo sapiens, UniProt P29558 58-224); test: ITC; ITC: 20 mM sodium phosphate pH 7.1, 50 mM NaCl, 303 K, 0.1 mM protein in cell, 1-1.5 mM DNA in syringe; NMR: 20 mM sodium phosphate pH 7.1, 100 mM NaCl, 5% D2O; settings: protein: recombinant; tags: N-term GAMG left after TEV cleavage of 6xHis; single strand
T3 sequence: T1 sequence

RBMS1 (58-224) Y105S = target: T4, RBMS1 (58-224) Y105S (Homo sapiens, UniProt P29558 62-223, Y105S); test: ITC; 20 mM sodium phosphate pH 7.1, 50 mM NaCl, 303 K (30 C); 0.1 mM protein in cell, 1-1.5 mM DNA in syringe; settings: protein: recombinant; tags: N-term GAMG left after TEV cleavage of 6xHis
T4 sequence: T2 sequence with Y44S

RBMS1 (58-224) F185V = target: T5, RBMS1 (58-224) F185V (Homo sapiens, UniProt P29558 62-223, F185V); test: as above; settings: protein: recombinant; tags: N-term GAMG left after TEV cleavage of 6xHis
T5 sequence: T2 sequence with F124V

RBMS1 (58-224) Q138E = target: T6, RBMS1 (58-224) Q138E (Homo sapiens, UniProt P29558 62-223, Q138E); test: as above; settings: protein: recombinant; tags: N-term GAMG left after TEV cleavage of 6xHis
T6 sequence: T2 sequence with Q77E

RBMS1 (58-224) F107L = target: T7, RBMS1 (58-224) F107L (Homo sapiens, UniProt P29558 62-223, F107L); test: as above; settings: protein: recombinant; tags: N-term GAMG left after TEV cleavage of 6xHis
T7 sequence: T2 sequence with F46L

RBMS1 RRM2 = target: T8, RBMS1 RRM2 (Homo sapiens, UniProt P29558 138-224); test: ITC; ITC: 20 mM sodium phosphate pH 7.1, 50 mM NaCl, 303 K, 0.1 mM protein in cell, 1-1.5 mM DNA in syringe; NMR: 20 mM sodium phosphate pH 7.1, 100 mM NaCl, 5% D2O; settings: protein: recombinant; tags: 6xHis removed by TEV; single strand
T8 sequence: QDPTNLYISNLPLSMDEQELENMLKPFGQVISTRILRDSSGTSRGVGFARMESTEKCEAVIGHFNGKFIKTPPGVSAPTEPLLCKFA

RBMS1 RRM1 [4] = target: T9, RBMS1 RRM1 (Homo sapiens, UniProt P29558 58-137); test: as above; settings: protein: recombinant; tags: 6xHis removed by TEV; single strand
T9 sequence: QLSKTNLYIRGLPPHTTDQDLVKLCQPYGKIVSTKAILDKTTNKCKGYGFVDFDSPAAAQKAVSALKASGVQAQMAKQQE

[5] = target: T10, RBMS1 linker mutant Q135E/Q138E (Homo sapiens, UniProt P29558 58-224, Q135E); test: as above; settings: protein: recombinant; tags: 6xHis removed by TEV; single strand
T10 sequence: T1 sequence with Q78E

RBMS1 RRM1 [6] = target: T9, RBMS1 RRM1; test: as above; settings: protein: recombinant; tags: 6xHis removed by TEV; single strand; remark: listed apart in the source

c-myc 21 bp promoter sequence
Kd [1]: 2.6 µM

TGGAATT (ssDNA)
Kd (RBMS1 (58-224) [2]): 21 µM

TGTTATT (ssDNA) [TGTTATT (C2G)]
Kd (RBMS1 (58-224) [3]): 15.2 µM

TATAATT (ssDNA)
Kd (RBMS1 (58-224) [2]): 37 µM

TGGTGTT (ssDNA)
Kd (RBMS1 (58-224) [2]): 16.1 µM

TCTTATT (ssDNA)
Kd (RBMS1 (58-224) [2]): 3.84 µM
binding result (RBMS1 (58-224) Y105S): no binding
Kd (RBMS1 (58-224) F185V): 6.02 µM
Kd (RBMS1 (58-224) Q138E): 13.9 µM
Kd (RBMS1 (58-224) F107L): 142 µM

TCTTATG (ssDNA)
Kd (RBMS1 (58-224) [2]): 19.3 µM

TGCTATT (ssDNA)
Kd (RBMS1 (58-224) [2]): 8.69 µM

TGTTATT (ssDNA)
Kd (RBMS1 (58-224) [2]): 15.2 µM

ATAT (ssDNA)
binding result (RBMS1 (58-224) [2]): no binding

TGGTTTT (ssDNA)
binding result (RBMS1 RRM2): no binding
Kd (RBMS1 (58-224) [2]): 4.04 µM
Kd (RBMS1 (58-224) Y105S): 418 µM
Kd (RBMS1 (58-224) F185V): 22 µM
Kd (RBMS1 (58-224) Q138E): 18.1 µM
Kd (RBMS1 (58-224) F107L): 83.3 µM

CTTTA (ssDNA)
Kd (RBMS1 (58-224) [2]): 55.5 µM

TCCCATT (ssDNA)
Kd (RBMS1 (58-224) [2]): 8.2 µM

TCTTATT (ssDNA) [c-myc consensus TCTTATT]
Kd (RBMS1 (58-224) [3]): 3.84 µM
Kd (RBMS1 RRM1 [4]): 55.2 µM
binding signal [5]: 10 fold lower binding than wild type

GTTAT (ssDNA)
Kd (RBMS1 (58-224) [2]): 81.3 µM

TCATATT (ssDNA)
Kd (RBMS1 (58-224) [2]): 11.9 µM

TGGGATT (ssDNA)
Kd (RBMS1 (58-224) [2]): 36.4 µM

TGGTACT (ssDNA)
Kd (RBMS1 (58-224) [2]): 15.9 µM

TTTTT (ssDNA)
Kd (RBMS1 (58-224) [2]): 79.4 µM

TCGTATT (ssDNA)
Kd (RBMS1 (58-224) [2]): 7.7 µM

GTAT (ssDNA)
binding result (RBMS1 (58-224) [2]): no binding

TGGTATC (ssDNA)
Kd (RBMS1 (58-224) [2]): 6.2 µM

TCGGATG (ssDNA)
Kd (RBMS1 (58-224) [2]): 35.5 µM

TGGTAAT (ssDNA)
Kd (RBMS1 (58-224) [2]): 9.6 µM

TTAT (ssDNA)
binding result (RBMS1 (58-224) [2]): no binding

TGGTATT (ssDNA)
binding result (RBMS1 RRM2): no binding
Kd (RBMS1 (58-224) [2]): 6.7 µM
Kd (RBMS1 (58-224) Y105S): 151 µM
Kd (RBMS1 (58-224) F185V): 23.2 µM
Kd (RBMS1 (58-224) Q138E): 17.6 µM
Kd (RBMS1 (58-224) F107L): 182 µM
binding signal (RBMS1 RRM1 [6]): 10 fold lower affinity than RBMS1 58-224

TGGTCAT (ssDNA)
Kd (RBMS1 (58-224) [2]): 17.5 µM

GGTAAT (ssDNA)
Kd (RBMS1 (58-224) [2]): 14.9 µM

From PMC8191779, “Hinge like domain motion facilitates human RBMS1 protein binding to proto-oncogene c-myc promoter”
